Test [1] relates to three PDZ domains of hDlg. The note with it: ref Lue et al., 1994; cited from earlier work.
In another test the test system is PDZ 1+2 module. Briefly: Blot overlay assay. The note with it: data not shown. It is filed as binding, human.
For test [2], the system named is protease-resistant module of hDlg containing PDZ domains 1 and 2. Conditions: ref Lue et al., 1995 [Abstract #1557]; cited from earlier work.
The next test concerns the target GST-hDlg fusion protein (Homo sapiens, UniProt Q12959). Nature of the test: Binding of ezrin / PTP-H1 to GST-hDlg. Conditions: PTP-H1 expressed in baculovirus system; data not shown.

Consider two molecules from PMC2121072 (The Journal of Cell Biology, 1996).

B1: protein 4.1: native protein 4.1 isolated from human RBCs (protein, UniProt P11171 1-864, looked up)
Protein 4.1: MTTEKSLVTEAENSQHQQKEEGEEAINSGQQEPQQEESCQTAAEGDNWCEQKLKASNGDTPTHEDLTKNKERTSESRGLSRLFSSFLKRPKSQVSEEEGKEVESDKEKGEGGQKEIEFGTSLDEEIILKAPIAAPEPELKTDPSLDLHSLSSAETQPAQEELREDPDFEIKEGEGLEECSKIEVKEESPQSKAETELKASQKPIRKHRNMHCKVSLLDDTVYECVVEKHAKGQDLLKRVCEHLNLLEEDYFGLAIWDNATSKTWLDSAKEIKKQVRGVPWNFTFNVKFYPPDPAQLTEDITRYYLCLQLRQDIVAGRLPCSFATLALLGSYTIQSELGDYDPELHGVDYVSDFKLAPNQTKELEEKVMELHKSYRSMTPAQADLEFLENAKKLSMYGVDLHKAKDLEGVDIILGVCSSGLLVYKDKLRINRFPWPKVLKISYKRSSFFIKIRPGEQEQYESTIGFKLPSYRAAKKLWKVCVEHHTFFRLTSTDTIPKSKFLALGSKFRYSGRTQAQTRQASALIDRPAPHFERTASKRASRSLDGAAAVDSADRSPRPTSAPAITQGQVAEGGVLDASAKKTVVPKAQKETVKAEVKKEDEPPEQAEPEPTEAWKVEKTHIEVTVPTSNGDQTQKLAEKTEDLIRMRKKKRERLDGENIYIRHSNLMLEDLDKSQEEIKKHHASISELKKNFMESVPEPRPSEWDKRLSTHSPFRTLNINGQIPTGEGPPLVKTQTVTISDNANAVKSEIPTKDVPIVHTETKTITYEAAQTDDNSGDLDPGVLLTAQTITSETPSSTTTTQITKTVKGGISETRIEKRIVITGDADIDHDQVLVQAIKEAKEQHPDMSVTKVVVHQETEIADE
Regarding B1, the “affinity for three PDZ domains vs 4.1B (I3) domain” value in test [1] was “significantly lower affinity”. Also, the “binding of protein 4.1 to PDZ 1+2 module” value with PDZ 1+2 module is recorded as “no binding”. The “binding to protease-resistant module” value in test [2] is recorded as “binds”.

B2: PTP-H1: tyrosine phosphatase expressed in the baculovirus expression system (protein)
chain: MTSRLRALGGRINNIRTSELPKEKTRSEVICSIHFLDGVVQTFKVTKQDTGQVLLDMVHNHLGVTEKEYFGLQHDDDSVDSPRWLEASKAIRKQLKGGFPCTLHFRVRFFIPDPNTLQQEQTRHLYFLQLKMDICEGRLTCPLNSAVVLASYAVQSHFGDYNSSIHHPGYLSDSHFIPDQNEDFLTKVESLHEQHSGLKQSEAESCYINIARTLDFYGVELHSGRDLHNLDLMIGIASAGVAVYRKYICTSFYPWVNILKISFKRKKFFIHQRQKQAESREHIVAFNMLNYRSCKNLWKSCVEHHTFFQAKKLLPQEKNVLSQYWTMGSRNTKKSVNNQYCKKVIGGMVWNPAMRRSLSVEHLETKSLPSRSPPITPNWRSPRLRHEIRKPRHSSADNLANEMTYITETEDVFYTYKGSLAPQDSDSEVSQNRSPHQESLSENNPAQSYLTQKSSSSVSPSSNAPGSCSPDGVDQQLLDDFHRVTKGGSTEDASQYYCDKNDNGDSYLVLIRITPDEDGKFGFNLKGGVDQKMPLVVSRINPESPADTCIPKLNEGDQIVLINGRDISEHTHDQVVMFIKASRESHSRELALVIRRRAVRSFADFKSEDELNQLFPEAIFPMCPEGGDTLEGSMAQLKKGLESGTVLIQFEQLYRKKPGLAITFAKLPQNLDKNRYKDVLPYDTTRVLLQGNEDYINASYVNMEIPAANLVNKYIATQGPLPHTCAQFWQVVWDQKLSLIVMLTTLTERGRTKCHQYWPDPPDVMNHGGFHIQCQSEDCTIAYVSREMLVTNTQTGEEHTVTHLQYVAWPDHGVPDDSSDFLEFVNYVRSLRVDSEPVLVHCSAGIGRTGVLVTMETAMCLTERNLPIYPLDIVRKMRDQRAMMVQTSSQYKFVCEAILRVYEEGLVQMLDPS
On to B2, for which the “interaction with GST-hDlg” value with GST-hDlg fusion protein was “no interaction”.
